m = 2'-O-methyl; r = 2'-OH (RNA)
B1: GA214: PCSK9 gRNA; protospacer CCTTGGCCACGCCGGCATCC (SEQ ID NO: 208) (nucleic acid)
guide: CCUUGGCCACGCCGGCAUCCGUUUUAGAGCUAGAAAUAGCAAGUUAAAAUAAGGCUAGUCCGUUAUCAACUUGAAAAAGUGGCACCGAGUCGGUGCUUUU
modifications: sugars from the 5' end m3 r94 m3, linkages s3 o93 s3 (s phosphorothioate, o phosphodiester), T or U not given here
B2: GA216: PCSK9 gRNA; protospacer CCGGGATGCCGGCGTGGCCA (SEQ ID NO: 210) (nucleic acid)
guide: CCGGGAUGCCGGCGUGGCCAGUUUUAGAGCUAGAAAUAGCAAGUUAAAAUAAGGCUAGUCCGUUAUCAACUUGAAAAAGUGGCACCGAGUCGGUGCUUUU
modifications: sugars from the 5' end m3 r94 m3, linkages s3 o93 s3 (s phosphorothioate, o phosphodiester), T or U not given here
B3: GA217: PCSK9 gRNA; protospacer GTGGTCAGCGGCCGGGATGC (SEQ ID NO: 211) (nucleic acid)
guide: GUGGUCAGCGGCCGGGAUGCGUUUUAGAGCUAGAAAUAGCAAGUUAAAAUAAGGCUAGUCCGUUAUCAACUUGAAAAAGUGGCACCGAGUCGGUGCUUUU
modifications: sugars from the 5' end m3 r94 m3, linkages s3 o93 s3 (s phosphorothioate, o phosphodiester), T or U not given here
B4: GA218: PCSK9 gRNA; protospacer CGCTGACCACCCCTGCCAGG (SEQ ID NO: 212) (nucleic acid)
guide: CGCUGACCACCCCUGCCAGGGUUUUAGAGCUAGAAAUAGCAAGUUAAAAUAAGGCUAGUCCGUUAUCAACUUGAAAAAGUGGCACCGAGUCGGUGCUUUU
modifications: sugars from the 5' end m3 r94 m3, linkages s3 o93 s3 (s phosphorothioate, o phosphodiester), T or U not given here
B5: GA219: PCSK9 gRNA; protospacer GGCAGGGGTGGTCAGCGGCC (SEQ ID NO: 213) (nucleic acid)
guide: GGCAGGGGUGGUCAGCGGCCGUUUUAGAGCUAGAAAUAGCAAGUUAAAAUAAGGCUAGUCCGUUAUCAACUUGAAAAAGUGGCACCGAGUCGGUGCUUUU
modifications: sugars from the 5' end m3 r94 m3, linkages s3 o93 s3 (s phosphorothioate, o phosphodiester), T or U not given here
B6: GA220: PCSK9 gRNA; protospacer GTGCTCAACTGCCAAGGGAA (SEQ ID NO: 214) (nucleic acid)
guide: GUGCUCAACUGCCAAGGGAAGUUUUAGAGCUAGAAAUAGCAAGUUAAAAUAAGGCUAGUCCGUUAUCAACUUGAAAAAGUGGCACCGAGUCGGUGCUUUU
modifications: sugars from the 5' end m3 r94 m3, linkages s3 o93 s3 (s phosphorothioate, o phosphodiester), T or U not given here
B7: GA221: PCSK9 gRNA; protospacer TCATGGCACCCACCTGGCAG (SEQ ID NO: 215) (nucleic acid)
guide: UCAUGGCACCCACCUGGCAGGUUUUAGAGCUAGAAAUAGCAAGUUAAAAUAAGGCUAGUCCGUUAUCAACUUGAAAAAGUGGCACCGAGUCGGUGCUUUU
modifications: sugars from the 5' end m3 r94 m3, linkages s3 o93 s3 (s phosphorothioate, o phosphodiester), T or U not given here
B8: GA222: PCSK9 gRNA; protospacer TGGCAGGGGTGGTCAGCGGC (SEQ ID NO: 216) (nucleic acid)
guide: UGGCAGGGGUGGUCAGCGGCGUUUUAGAGCUAGAAAUAGCAAGUUAAAAUAAGGCUAGUCCGUUAUCAACUUGAAAAAGUGGCACCGAGUCGGUGCUUUU
modifications: sugars from the 5' end m3 r94 m3, linkages s3 o93 s3 (s phosphorothioate, o phosphodiester), T or U not given here
B9: GA223: PCSK9 gRNA; protospacer GCTGACCACCCCTGCCAGGT (SEQ ID NO: 217) (nucleic acid)
guide: GCUGACCACCCCUGCCAGGUGUUUUAGAGCUAGAAAUAGCAAGUUAAAAUAAGGCUAGUCCGUUAUCAACUUGAAAAAGUGGCACCGAGUCGGUGCUUUU
modifications: sugars from the 5' end m3 r94 m3, linkages s3 o93 s3 (s phosphorothioate, o phosphodiester), T or U not given here
B10: GA160: PCSK9 gRNA; protospacer GCCTTGCGTTCCGAGGAGGA (SEQ ID NO: 154) (nucleic acid)
guide: GCCUUGCGUUCCGAGGAGGAGUUUUAGAGCUAGAAAUAGCAAGUUAAAAUAAGGCUAGUCCGUUAUCAACUUGAAAAAGUGGCACCGAGUCGGUGCUUUU
modifications: sugars from the 5' end m3 r94 m3, linkages s3 o93 s3 (s phosphorothioate, o phosphodiester), T or U not given here
B11: GA224: PCSK9 gRNA; protospacer GGCCGCTGACCACCCCTGCC (SEQ ID NO: 218) (nucleic acid)
guide: GGCCGCUGACCACCCCUGCCGUUUUAGAGCUAGAAAUAGCAAGUUAAAAUAAGGCUAGUCCGUUAUCAACUUGAAAAAGUGGCACCGAGUCGGUGCUUUU
modifications: sugars from the 5' end m3 r94 m3, linkages s3 o93 s3 (s phosphorothioate, o phosphodiester), T or U not given here
B12: GA225: PCSK9 gRNA; protospacer GGCATCGTCCCGGAAGTTGC (SEQ ID NO: 219) (nucleic acid)
guide: GGCAUCGUCCCGGAAGUUGCGUUUUAGAGCUAGAAAUAGCAAGUUAAAAUAAGGCUAGUCCGUUAUCAACUUGAAAAAGUGGCACCGAGUCGGUGCUUUU
modifications: sugars from the 5' end m3 r94 m3, linkages s3 o93 s3 (s phosphorothioate, o phosphodiester), T or U not given here
B13: GA227: PCSK9 gRNA; protospacer GTCCCGGAAGTTGCCGGCAG (SEQ ID NO: 221) (nucleic acid)
guide: GUCCCGGAAGUUGCCGGCAGGUUUUAGAGCUAGAAAUAGCAAGUUAAAAUAAGGCUAGUCCGUUAUCAACUUGAAAAAGUGGCACCGAGUCGGUGCUUUU
modifications: sugars from the 5' end m3 r94 m3, linkages s3 o93 s3 (s phosphorothioate, o phosphodiester), T or U not given here
B14: GA215: PCSK9 gRNA; protospacer CAGCGGCCGGGATGCCGGCG (SEQ ID NO: 209) (nucleic acid)
guide: CAGCGGCCGGGAUGCCGGCGGUUUUAGAGCUAGAAAUAGCAAGUUAAAAUAAGGCUAGUCCGUUAUCAACUUGAAAAAGUGGCACCGAGUCGGUGCUUUU
modifications: sugars from the 5' end m3 r94 m3, linkages s3 o93 s3 (s phosphorothioate, o phosphodiester), T or U not given here

Each molecule was assayed on PCSK9 gene (assay: PCSK9 gRNA/SpCas9 editing in primary cynomolgus hepatocytes (Tables 2, 22)). Conditions: 100 ng/RNA/mL; SpCas9 mRNA MS002 1:1 by weight.
Type: cell-based, cynomolgus monkey

Row | Molecule | Cyno Primary Hepatocyte Editing % 100
1 | B1 | 3.06%
2 | B2 | 1.77%
3 | B3 | 2.6%
4 | B4 | 5.42%
5 | B5 | 0.35%
6 | B6 | 3.13%
7 | B7 | 2.82%
8 | B8 | 0.88%
9 | B9 | 3.46%
10 | B10 | 1.38%
11 | B11 | 2.61%
12 | B12 | 2.03%
13 | B13 | 0.56%

Same assay, conditions: 500 ng/RNA/mL; SpCas9 mRNA MS002 1:1 by weight

Row | Molecule | Cyno Primary Hepatocyte Editing % 500
14 | B1 | 14.84%
15 | B14 | 1.07%
16 | B2 | 4.97%
17 | B3 | 10.2%
18 | B4 | 19.95%
19 | B5 | 11.89%
20 | B6 | 12.39%
21 | B7 | 20.27%
22 | B8 | 3.32%
23 | B9 | 21.4%
24 | B10 | 6.60%
25 | B11 | 12.34%
26 | B12 | 3.11%
27 | B13 | 4.58%

Same assay, conditions: 2500 ng/RNA/mL; SpCas9 mRNA MS002 1:1 by weight

Row | Molecule | Cyno Primary Hepatocyte Editing % 2500
28 | B1 | 50.35%
29 | B14 | 7.52%
30 | B2 | 37.79%
31 | B3 | 39.21%
32 | B4 | 58.66%
33 | B5 | 48.67%
34 | B6 | 45.17%
35 | B7 | 57.4%
36 | B8 | 16.7%
37 | B9 | 57.58%
38 | B10 | 23.15%
39 | B11 | 47.5%
40 | B12 | 8.57%
41 | B13 | 32.41%

Each molecule was assayed on PCSK9 gene (assay: PCSK9 gRNA/SpCas9 editing in primary human hepatocytes (Tables 2, 4)). Conditions: 100 ng/RNA/mL; SpCas9 mRNA MS002 1:1 by weight.
Type: cell-based
Procedure, shortened: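 Primary human hepatocytes co-transfected with PCSK9 gRNA plus SpCas9 mRNA (1:1 by weight) at 2500, 500 or 100 ng RNA/mL, or 2500–250 ng/mL for tracr-modified guides. Editing at the target site read by amplicon next-generation sequencing of extracted genomic DNA.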

Row | Molecule | Human Primary Hepatocyte Editing % 100
42 | B1 | 1.94%
43 | B14 | 0.13%
44 | B2 | 0.95%
45 | B3 | 0.77%
46 | B4 | 3.81%
47 | B5 | 1.28%
48 | B6 | 2.17%
49 | B7 | 1.11%
50 | B8 | 0.5%
51 | B9 | 1.44%
52 | B10 | 1.19%
53 | B11 | 1.01%
54 | B12 | 0.89%
55 | B13 | 0.02%

Same assay, conditions: 500 ng/RNA/mL; SpCas9 mRNA MS002 1:1 by weight

Row | Molecule | Human Primary Hepatocyte Editing % 500
56 | B1 | 6.28%
57 | B14 | 1.01%
58 | B2 | 3.7%
59 | B3 | 2.75%
60 | B4 | 8.96%
61 | B5 | 4.57%
62 | B6 | 9.12%
63 | B7 | 7.48%
64 | B8 | 0.66%
65 | B9 | 7.28%
66 | B10 | 5.58%
67 | B11 | 2.19%
68 | B12 | 6.39%
69 | B13 | 8.29%

Same assay, conditions: 2500 ng/RNA/mL; SpCas9 mRNA MS002 1:1 by weight

Row | Molecule | Human Primary Hepatocyte Editing % 2500
70 | B1 | 22.92%
71 | B14 | 4.94%
72 | B2 | 14.65%
73 | B3 | 15.31%
74 | B4 | 31.71%
75 | B5 | 15.97%
76 | B6 | 21.87%
77 | B7 | 29.35%
78 | B8 | 2.04%
79 | B9 | 17.5%
80 | B10 | 23.3%
81 | B11 | 13.02%
82 | B12 | 18.82%
83 | B13 | 32.09%

From patent US20250152746A1, “BASE EDITING OF ANGPTL3 AND METHODS OF USING SAME FOR TREATMENT OF DISEASE” (Verve Therapeutics, Inc., priority 2020, published 2025)
